The source of these data is patent publication US20060104978.

The target of data set [1] is full-length PDGF-D expressed in transfected COS-1 cells (latent PDGF-DD), Q9GZP0.
Data set [2] deals with full-length PDGF-C expressed in transfected COS-1 cells (latent PDGF-CC), Q9NRA1.
Data set [3] deals with PDGF-CC deletion mutant ΔN210, Q9NRA1.
In data set [4] the target is T1, CUBc-myc (CUB domain of PDGF-C, residues 1 to 165, with a human c-myc tag), Q9NRA1.
T1 chain: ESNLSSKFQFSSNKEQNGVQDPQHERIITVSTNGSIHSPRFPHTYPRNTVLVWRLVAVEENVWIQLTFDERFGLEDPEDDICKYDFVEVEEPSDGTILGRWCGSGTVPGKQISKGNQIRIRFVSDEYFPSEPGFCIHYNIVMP

Data set [5] has as its target PDGF-CC deletion mutant ΔN170, Q9NRA1.
The target in data set [6] is PDGF-CC deletion mutant ΔN190, Q9NRA1.
For data set [7], the target named is T2, chimeric PDCUBPC (CUB region of PDGF-D, hinge/core region of PDGF-C), Q9GZP0.
T2 chain: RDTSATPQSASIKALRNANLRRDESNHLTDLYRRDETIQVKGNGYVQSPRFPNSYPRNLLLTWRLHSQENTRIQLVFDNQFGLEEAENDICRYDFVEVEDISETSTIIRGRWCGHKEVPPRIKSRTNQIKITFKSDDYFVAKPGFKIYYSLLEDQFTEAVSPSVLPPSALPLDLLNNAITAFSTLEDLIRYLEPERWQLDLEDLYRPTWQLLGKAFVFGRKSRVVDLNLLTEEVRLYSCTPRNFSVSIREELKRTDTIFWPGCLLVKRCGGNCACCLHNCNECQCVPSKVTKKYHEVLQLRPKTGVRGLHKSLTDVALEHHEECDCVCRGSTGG

For data set [8], the target named is PDGF-CC deletion mutant ΔN230, Q9NRA1.
Data set [9] concerns the target PDGF-CC deletion mutant ΔN150, Q9NRA1.
Data set [10] has as its target cleavage site mutant of mouse PDGF-C (-K-K-S-K- replaced by four alanines), Q8CI19.
Data set [11] deals with recombinant His6-tagged latent (full-length) human PDGF-CC, Q9NRA1.
For data set [12], the target named is recombinant His6-tagged latent (full-length) PDGF-DD, Q9GZP0.
Data set [13] deals with T3, endogenous latent PDGF-CC secreted by primary mouse fibroblasts, Q8CI19.
T3 chain: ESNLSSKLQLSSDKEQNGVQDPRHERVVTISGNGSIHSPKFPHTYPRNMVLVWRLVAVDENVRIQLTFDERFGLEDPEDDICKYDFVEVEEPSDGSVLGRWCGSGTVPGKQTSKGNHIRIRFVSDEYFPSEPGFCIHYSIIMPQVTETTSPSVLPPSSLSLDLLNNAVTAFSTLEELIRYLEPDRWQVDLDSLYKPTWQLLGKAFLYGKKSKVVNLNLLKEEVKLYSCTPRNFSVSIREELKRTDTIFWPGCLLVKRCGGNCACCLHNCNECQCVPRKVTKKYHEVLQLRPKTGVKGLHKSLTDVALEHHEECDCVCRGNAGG

B1: human neurotrypsin (NT) expressed in transfected COS-1 cells (pSG5) (protein)
chain: FDSVLNDSLHHSHRHSPPAGPHYPYYLPTQQRPPRTRPPPPLPRFPRPPRALPAQRPHALQAGHTPRPHPWGCPAGEPWVSVTDFGAPCLRWAEVPPFLERSPPASWAQLRGQRHNFCRSPDGAGRPWCFYGDARGKVDWGYCDCRHGSVRLRGGKNEFEGTVEVYASGVWGTVCSSHWDDSDASVICHQLQLGGKGIAKQTPFSGLGLIPIYWSNVRCRGDEENILLCEKDIWQGGVCPQKMAAAVTCSFSHGPTFPIIRLAGGSSVHEGRVELYHAGQWGTVCDDQWDDADAEVICRQLGLSGIAKAWHQAYFGEGSGPVMLDEVRCTGNELSIEQCPKSSWGEHNCGHKEDAGVSCTPLTDGVIRLAGGKGSHEGRLEVYYRGQWGTVCDDGWTELNTYVVCRQLGFKYGKQASANHFEESTGPIWLDDVSCSGKETRFLQCSRRQWGRHDCSHREDVSIACYPGGEGHRLSLGFPVRLMDGENKKEGRVEVFINGQWGTICDDGWTDKDAAVICRQLGYKGPARARTMAYFGEGKGPIHVDNVKCTGNERSLADCIKQDIGRHNCRHSEDAGVICDYFGKKASGNSNKESLSSVCGLRLLHRRQKRIIGGKNSLRGGWPWQVSLRLKSSHGDGRLLCGATLLSSCWVLTAAHCFKRYGNSTRSYAVRVGDYHTLVPEEFEEEIGVQQIVIHREYRPDRSDYDIALVRLQGPEEQCARFSSHVLPACLPLWRERPQKTASNCYITGWGDTGRAYSRTLQQAAIPLLPKRFCEERYKGRFTGRMLCAGNLHEHKRVDSCQGDSGGPLMCERPGESWVVYGVTSWGYGCGVKDSPGVYTKVSAFVPWIKSVTKL
B1: the “proteolytic cleavage in the cotransfection assay (SDS-PAGE, immunoblot)” value is “neither of the two enzymes was able to cleave and activate latent PDGF-DD” in data set [1]; “neurotrypsin (NT) lacked proteolytic activity toward latent PDGF-CC” in [2].

B2: full-length human tPA expressed in transfected COS-1 cells (pSG5) (protein)
chain: SYQVICRDEKTQMIYQQHQSWLRPVLRSNRVEYCWCNSGRAQCHSVPVKSCSEPRCFNGGTCQQALYFSDFVCQCPEGFAGKCCEIDTRATCYEDQGISYRGTWSTAESGAECTNWNSSALAQKPYSGRRPDAIRLGLGNHNYCRNPDRDSKPWCYVFKAGKYSSEFCSTPACSEGNSDCYFGNGSAYRGTHSLTESGASCLPWNSMILIGKVYTAQNPSAQALGLGKHNYCRNPDGDAKPWCHVLKNRRLTWEYCDVPSCSTCGLRQYSQPQFRIKGGLFADIASHPWQAAIFAKHRRSPGERFLCGGILISSCWILSAAHCFQERFPPHHLTVILGRTYRVVPGEEEQKFEVEKYIVHKEFDDDTYDNDIALLQLKSDSSRCAQESSVVRTVCLPPADLQLPDWTECELSGYGKHEALSPFYSERLKEAHVRLYPSSRCTSQHLLNRTVTDNMLCAGDTRSGGPQANLHDACQGDSGGPLVCLNDGRMTLVGIISWGLGCGQKDVPGVYTKVTNYLDWIRDNMRP
With B2, the “proteolytic cleavage in the cotransfection assay (immunoblot)” value in data set [3] is given as “neither chimeric PDCUBPC, nor the truncation mutants lacking the CUB domain, were efficiently cleaved”; in data set [5], “neither chimeric PDCUBPC, nor the truncation mutants lacking the CUB domain, were efficiently cleaved”; in data set [6] it was “neither chimeric PDCUBPC, nor the truncation mutants lacking the CUB domain, were efficiently cleaved”; in [7], “neither chimeric PDCUBPC, nor the truncation mutants lacking the CUB domain, were efficiently cleaved”; in [8] it was “neither chimeric PDCUBPC, nor the truncation mutants lacking the CUB domain, were efficiently cleaved”; in data set [9] it was “neither chimeric PDCUBPC, nor the truncation mutants lacking the CUB domain, were efficiently cleaved”. In data set [10], the “proteolytic cleavage in the cotransfection assay (immunoblot)” value is recorded as “the mutant was resistant to tPA-mediated cleavage”. In addition, the “cleavage of full-length PDGF-CC by tPA in the cotransfection assay (immunoblot)” value in [4] is “the CUB domain efficiently competed for the interaction and processing of latent PDGF-CC by tPA”. In addition, the “proteolytic cleavage in the cotransfection assay (SDS-PAGE, immunoblot)” value in data set [1] was “neither of the two enzymes was able to cleave and activate latent PDGF-DD”; in [2], “tPA released the growth factor domain of latent PDGFCC, and the fragment migrated as a 22 kDa species under reducing conditions”.

B3: tPA purified from human melanoma cells (T7776, Sigma) (protein)
chain: B2 chain
For the protein B3, the “in vitro cleavage with purified tPA (SDS-PAGE, immunoblot)” value in data set [11] is recorded as “PDGF-CC, but not PDGF-DD, is a substrate for tPA”; in data set [12] it was “PDGF-CC, but not PDGF-DD, is a substrate for tPA”.

B4: endogenous tPA of primary mouse fibroblasts (protein)
chain: SYRATCRDEPTQTTYQQHQSWLRPMLRSSRVEYCRCNSGLVQCHSVPVRSCSEPRCFNGGTCQQALYFSDFVCQCPDGFVGKRCDIDTRATCFEEQGITYRGTWSTAESGAECINWNSSVLSLKPYNARRPNAIKLGLGNHNYCRNPDRDLKPWCYVFKAGKYTTEFCSTPACPKGKSEDCYVGKGVTYRGTHSLTTSQASCLPWNSIVLMGKSYTAWRTNSQALGLGRHNYCRNPDGDARPWCHVMKDRKLTWEYCDMSPCSTCGLRQYKRPQFRIKGGLYTDITSHPWQAAIFVKNKRSPGERFLCGGVLISSCWVLSAAHCFLERFPPNHLKVVLGRTYRVVPGEEEQTFEIEKYIVHEEFDDDTYDNDIALLQLRSQSKQCAQESSSVGTACLPDPNLQLPDWTECELSGYGKHEASSPFFSDRLKEAHVRLYPSSRCTSQHLFNKTVTNNMLCAGDTRSGGNQDLHDACQGDSGGPLVCMINKQMTLTGIISWGLGCGQKDVPGVYTKVTNYLDWIHDNMKQ
In the case of B4, the “processing of latent PDGF-CC in medium of tPA-deficient against wild-type fibroblasts (immunoblot)” value in data set [13] is “the generation of double species migrating as 22-25 kDa was reduced to less than 10%”.
